Assay results taken from paper doi:10.1101/2023.03.09.531510.

Experiments:
Assay in all cases: protein-fragment complementation
Rvs167 = Rvs167 (UniProt P39743)
Arc40 = Arc40 (UniProt P38328)
Arc19 = Arc19 (UniProt P33204)
Sac6 = Sac6 (UniProt P32599)
Yor1 = Yor1 (UniProt P53049)
Ssb1 = Ssb1 (UniProt P11484)
Osh2 = Osh2 (UniProt Q12451)
Bmh1 = Bmh1 (UniProt P29311)
Bbc1 = Bbc1 (UniProt P47068)
Ste20 = Ste20 (UniProt Q03497)
Pkh2 = molecular target: Pkh2
Pab1 = Pab1 (UniProt P04147)
Tif4631 = Tif4631 (UniProt P39935)
Cdc3 = Cdc3 (UniProt P32457)
Chc1 = Chc1 (UniProt P22137)
Arc18 = Arc18 (UniProt Q05933)
Ysc84 = Ysc84 (UniProt P32793)
Syp1 = Syp1 (UniProt P25623)
Myo5 = Myo5 (UniProt Q04439)
Pfk1 = Pfk1 (UniProt P16861)
Mid2 = Mid2 (UniProt P36027)
Sbp1 = Sbp1 (UniProt P10080)
Lsb3 = Lsb3 (UniProt P43603)
Vrp1 = Vrp1 (UniProt P37370)
Aim21 = Aim21 (UniProt P40563)
Ssz1 = Ssz1 (UniProt P38788)
Sla2 = Sla2 (UniProt P33338)
Smi1 = Smi1 (UniProt P32566)
Bzz1 = Bzz1 (UniProt P38822)
Abp1 = Abp1 (UniProt P15891)
Ssb2 = Ssb2 (UniProt P40150)
Srv2 = Srv2 (UniProt P17555)
Tdh3 = Tdh3 (UniProt P00359)
Arc15 = Arc15 (UniProt P40518)
Ygl242c = Ygl242c (UniProt P53066)
Hsp104 = Hsp104 (UniProt P31539)
Cdc10 = Cdc10 (UniProt P25342)
Las17 = Las17 (UniProt Q12446)
Pan1 = Pan1 (UniProt P32521)
Sla1 = Sla1 (UniProt P32790)
Sfk1 = Sfk1 (UniProt P35735)
Hek2 = Hek2 (UniProt P38199)
Cmd1 = Cmd1 (UniProt P06787)
Nap1 = Nap1 (UniProt P25293)
Ssa1 = Ssa1 (UniProt P10591)

UniProt P22137, sequence (P22137 whole entry): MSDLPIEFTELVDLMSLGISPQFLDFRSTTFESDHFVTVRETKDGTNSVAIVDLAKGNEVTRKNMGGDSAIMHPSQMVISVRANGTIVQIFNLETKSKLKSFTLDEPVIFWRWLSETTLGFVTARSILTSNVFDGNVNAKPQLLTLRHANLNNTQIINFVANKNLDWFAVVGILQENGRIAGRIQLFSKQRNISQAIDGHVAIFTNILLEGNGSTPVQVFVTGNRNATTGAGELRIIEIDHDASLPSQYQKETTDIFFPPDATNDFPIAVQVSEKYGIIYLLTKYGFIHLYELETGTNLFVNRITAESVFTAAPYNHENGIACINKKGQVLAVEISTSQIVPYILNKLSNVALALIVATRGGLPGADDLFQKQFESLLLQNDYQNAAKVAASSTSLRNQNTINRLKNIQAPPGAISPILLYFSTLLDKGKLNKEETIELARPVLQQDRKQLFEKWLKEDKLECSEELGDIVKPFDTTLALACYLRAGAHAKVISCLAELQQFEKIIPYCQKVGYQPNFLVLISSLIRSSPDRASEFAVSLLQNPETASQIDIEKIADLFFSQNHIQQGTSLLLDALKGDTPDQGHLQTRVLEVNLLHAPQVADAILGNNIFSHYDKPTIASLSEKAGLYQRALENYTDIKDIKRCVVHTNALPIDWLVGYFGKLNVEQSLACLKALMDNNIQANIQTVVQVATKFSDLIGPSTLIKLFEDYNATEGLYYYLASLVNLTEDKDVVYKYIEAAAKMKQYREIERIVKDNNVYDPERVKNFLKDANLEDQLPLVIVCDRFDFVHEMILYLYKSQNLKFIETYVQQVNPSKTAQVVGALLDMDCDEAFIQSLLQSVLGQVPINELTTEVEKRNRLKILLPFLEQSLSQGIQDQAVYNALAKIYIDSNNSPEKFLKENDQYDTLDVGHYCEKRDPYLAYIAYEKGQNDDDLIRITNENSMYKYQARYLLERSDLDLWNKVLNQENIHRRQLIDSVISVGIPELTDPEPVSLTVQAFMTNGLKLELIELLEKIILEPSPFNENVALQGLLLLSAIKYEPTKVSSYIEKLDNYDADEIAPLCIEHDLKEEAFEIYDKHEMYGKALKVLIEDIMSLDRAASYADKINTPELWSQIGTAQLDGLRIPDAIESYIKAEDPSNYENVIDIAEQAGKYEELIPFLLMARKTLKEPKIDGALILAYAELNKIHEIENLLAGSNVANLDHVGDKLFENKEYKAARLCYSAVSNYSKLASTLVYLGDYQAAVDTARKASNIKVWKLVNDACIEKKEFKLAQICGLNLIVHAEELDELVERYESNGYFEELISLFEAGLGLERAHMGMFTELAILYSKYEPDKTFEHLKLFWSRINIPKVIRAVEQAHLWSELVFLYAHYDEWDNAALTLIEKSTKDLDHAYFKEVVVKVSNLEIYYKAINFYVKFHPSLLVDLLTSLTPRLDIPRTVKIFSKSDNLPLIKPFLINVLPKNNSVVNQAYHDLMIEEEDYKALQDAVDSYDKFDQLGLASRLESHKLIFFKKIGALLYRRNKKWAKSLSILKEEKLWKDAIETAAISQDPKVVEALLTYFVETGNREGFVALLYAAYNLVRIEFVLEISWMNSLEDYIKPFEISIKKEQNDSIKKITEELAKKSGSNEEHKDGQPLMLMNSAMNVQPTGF
UniProt P29311, sequence (P29311 whole entry): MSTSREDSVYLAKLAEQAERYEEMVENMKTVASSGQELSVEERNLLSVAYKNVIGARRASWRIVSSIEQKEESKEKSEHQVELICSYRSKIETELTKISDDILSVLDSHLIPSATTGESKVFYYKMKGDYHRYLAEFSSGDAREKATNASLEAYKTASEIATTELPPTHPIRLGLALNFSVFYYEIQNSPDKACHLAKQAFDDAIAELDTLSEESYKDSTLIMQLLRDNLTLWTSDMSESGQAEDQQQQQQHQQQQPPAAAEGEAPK
UniProt P25623, sequence (P25623 whole entry): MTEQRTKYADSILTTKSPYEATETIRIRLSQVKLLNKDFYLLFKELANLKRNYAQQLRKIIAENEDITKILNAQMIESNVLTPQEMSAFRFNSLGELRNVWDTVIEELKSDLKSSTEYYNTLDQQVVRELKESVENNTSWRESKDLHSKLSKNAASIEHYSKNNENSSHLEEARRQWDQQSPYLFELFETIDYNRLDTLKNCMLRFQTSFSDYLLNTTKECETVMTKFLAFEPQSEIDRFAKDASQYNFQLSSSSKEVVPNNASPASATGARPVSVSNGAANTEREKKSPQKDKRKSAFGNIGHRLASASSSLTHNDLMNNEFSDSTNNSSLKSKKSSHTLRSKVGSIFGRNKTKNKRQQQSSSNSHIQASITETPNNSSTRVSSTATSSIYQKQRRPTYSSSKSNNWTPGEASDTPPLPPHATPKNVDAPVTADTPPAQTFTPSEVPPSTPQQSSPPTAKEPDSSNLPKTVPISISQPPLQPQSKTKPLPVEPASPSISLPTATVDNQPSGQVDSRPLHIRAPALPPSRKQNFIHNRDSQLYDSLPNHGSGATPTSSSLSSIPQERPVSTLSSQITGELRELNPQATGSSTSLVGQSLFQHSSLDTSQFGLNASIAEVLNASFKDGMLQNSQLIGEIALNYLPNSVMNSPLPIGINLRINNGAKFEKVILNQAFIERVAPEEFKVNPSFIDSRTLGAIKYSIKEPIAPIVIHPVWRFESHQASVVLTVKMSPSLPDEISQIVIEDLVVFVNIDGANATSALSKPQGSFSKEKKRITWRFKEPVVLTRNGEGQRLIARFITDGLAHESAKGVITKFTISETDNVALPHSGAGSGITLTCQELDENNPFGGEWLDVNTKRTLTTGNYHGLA
UniProt P39935, sequence (P39935 whole entry): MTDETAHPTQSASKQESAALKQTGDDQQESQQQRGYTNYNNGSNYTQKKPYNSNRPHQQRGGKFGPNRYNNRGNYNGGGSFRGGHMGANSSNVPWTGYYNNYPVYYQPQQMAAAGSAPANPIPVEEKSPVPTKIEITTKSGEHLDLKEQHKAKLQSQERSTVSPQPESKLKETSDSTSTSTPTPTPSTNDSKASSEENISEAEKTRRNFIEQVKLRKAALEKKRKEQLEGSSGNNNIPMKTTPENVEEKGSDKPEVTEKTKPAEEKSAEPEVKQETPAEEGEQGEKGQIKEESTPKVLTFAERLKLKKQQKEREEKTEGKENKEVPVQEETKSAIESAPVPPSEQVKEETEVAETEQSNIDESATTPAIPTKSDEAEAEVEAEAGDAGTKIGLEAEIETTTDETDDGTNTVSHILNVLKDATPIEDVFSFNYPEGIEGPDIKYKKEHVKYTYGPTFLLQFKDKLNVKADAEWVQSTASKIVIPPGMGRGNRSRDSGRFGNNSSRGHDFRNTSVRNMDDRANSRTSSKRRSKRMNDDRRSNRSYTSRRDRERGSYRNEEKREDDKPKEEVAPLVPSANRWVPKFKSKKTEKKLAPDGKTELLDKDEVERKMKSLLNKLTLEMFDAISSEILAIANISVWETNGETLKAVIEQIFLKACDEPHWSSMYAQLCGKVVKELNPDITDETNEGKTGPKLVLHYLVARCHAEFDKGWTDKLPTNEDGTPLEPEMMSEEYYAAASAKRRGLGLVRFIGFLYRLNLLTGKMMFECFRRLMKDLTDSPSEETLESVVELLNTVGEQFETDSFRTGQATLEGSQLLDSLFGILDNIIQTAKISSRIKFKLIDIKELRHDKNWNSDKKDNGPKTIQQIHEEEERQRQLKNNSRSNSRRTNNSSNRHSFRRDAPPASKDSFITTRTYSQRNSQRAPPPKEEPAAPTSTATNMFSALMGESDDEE
UniProt P32599, sequence (P32599 whole entry): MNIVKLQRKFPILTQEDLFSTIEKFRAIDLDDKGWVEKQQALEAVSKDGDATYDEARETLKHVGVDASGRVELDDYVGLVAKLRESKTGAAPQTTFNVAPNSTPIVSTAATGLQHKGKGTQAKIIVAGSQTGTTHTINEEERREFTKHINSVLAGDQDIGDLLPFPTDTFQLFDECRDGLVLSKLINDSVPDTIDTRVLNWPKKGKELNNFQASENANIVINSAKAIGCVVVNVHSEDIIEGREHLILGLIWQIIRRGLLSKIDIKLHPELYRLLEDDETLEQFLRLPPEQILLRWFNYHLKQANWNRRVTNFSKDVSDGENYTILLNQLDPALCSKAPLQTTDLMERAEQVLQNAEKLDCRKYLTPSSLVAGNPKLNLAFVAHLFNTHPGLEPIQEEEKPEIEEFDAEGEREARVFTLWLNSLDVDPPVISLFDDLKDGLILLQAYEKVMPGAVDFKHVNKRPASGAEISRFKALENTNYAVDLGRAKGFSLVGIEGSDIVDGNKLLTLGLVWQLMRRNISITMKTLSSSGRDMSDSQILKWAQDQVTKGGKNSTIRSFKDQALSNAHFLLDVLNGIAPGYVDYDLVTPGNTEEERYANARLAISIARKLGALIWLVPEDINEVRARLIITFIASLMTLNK
UniProt P06787, sequence (P06787 whole entry): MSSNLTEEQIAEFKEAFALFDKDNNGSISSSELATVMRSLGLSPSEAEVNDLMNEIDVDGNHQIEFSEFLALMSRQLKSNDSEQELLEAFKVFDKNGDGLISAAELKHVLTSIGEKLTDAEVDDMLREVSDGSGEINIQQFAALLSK
UniProt P43603, sequence (P43603 whole entry): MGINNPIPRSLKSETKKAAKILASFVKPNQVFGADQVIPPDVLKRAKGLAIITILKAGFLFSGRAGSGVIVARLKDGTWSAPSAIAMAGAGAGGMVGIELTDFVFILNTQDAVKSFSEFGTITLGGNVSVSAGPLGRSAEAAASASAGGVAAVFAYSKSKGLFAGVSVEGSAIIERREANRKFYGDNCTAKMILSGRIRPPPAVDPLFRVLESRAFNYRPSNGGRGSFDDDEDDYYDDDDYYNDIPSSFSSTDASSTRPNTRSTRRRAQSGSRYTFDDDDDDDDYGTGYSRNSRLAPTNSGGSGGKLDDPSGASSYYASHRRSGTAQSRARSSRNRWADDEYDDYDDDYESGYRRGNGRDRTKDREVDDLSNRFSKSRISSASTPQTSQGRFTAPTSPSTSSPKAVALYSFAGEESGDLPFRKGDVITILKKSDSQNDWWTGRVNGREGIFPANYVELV

## Myo5 with SH3 swapMyo3 (from UniProt Q04439)
Rvs167
  interaction score: 0.519
Arc40
  interaction score: 0.967
Arc19
  interaction score: 0.762
Sac6
  interaction score: 0.824
Yor1
  interaction score: 0.492
Ssb1
  interaction score: 0.934
Osh2
  interaction score: 0.76
Bmh1
  interaction score: 0.825
Bbc1
  interaction score: 0.755
Ste20
  interaction score: 0.417
Pkh2
  interaction score: 0.168
Pab1
  interaction score: 0.795
Tif4631
  interaction score: 0.665
Cdc3
  interaction score: 0.472
Chc1
  interaction score: 0.594
Arc18
  interaction score: 0.874
Ysc84
  interaction score: 0.459
Syp1
  interaction score: 0.557
Myo5
  interaction score: 0.903
Pfk1
  interaction score: 0.862
Mid2
  interaction score: 0.858
Sbp1
  interaction score: 0.824
Lsb3
  interaction score: 0.628
Vrp1
  interaction score: 0.917
Aim21
  interaction score: 0.753
Ssz1
  interaction score: 0.838
Sla2
  interaction score: 0.632
Smi1
  interaction score: 0.539
Bzz1
  interaction score: 0.818
Abp1
  interaction score: 0.908
Ssb2
  interaction score: 0.932
Srv2
  interaction score: 0.637
Tdh3
  interaction score: 0.972
Arc15
  interaction score: 0.9
Ygl242c
  interaction score: 0.935
Hsp104
  interaction score: 0.767
Cdc10
  interaction score: 0.33
Las17
  interaction score: 0.877
Pan1
  interaction score: 0.925
Sla1
  interaction score: 0.535
Sfk1
  interaction score: 0.714
Hek2
  interaction score: 0.387
Cmd1
  interaction score: 0.196
Nap1
  interaction score: 0.479

## Myo5 with SH3 swap-optMyo3 (from UniProt Q04439)
Rvs167
  interaction score: 0.53
Arc40
  interaction score: 0.97
Ssa1
  interaction score: 0.91
Arc19
  interaction score: 0.78
Sac6
  interaction score: 0.836
Yor1
  interaction score: 0.481
Ssb1
  interaction score: 0.942
Osh2
  interaction score: 0.762
Bmh1
  interaction score: 0.833
Bbc1
  interaction score: 0.767
Ste20
  interaction score: 0.425
Pkh2
  interaction score: 0.095
Pab1
  interaction score: 0.795
Tif4631
  interaction score: 0.689
Cdc3
  interaction score: 0.457
Chc1
  interaction score: 0.598
Arc18
  interaction score: 0.88
Ysc84
  interaction score: 0.475
Syp1
  interaction score: 0.543
Myo5
  interaction score: 0.907
Mid2
  interaction score: 0.868
Sbp1
  interaction score: 0.835
Lsb3
  interaction score: 0.643
Vrp1
  interaction score: 0.92
Aim21
  interaction score: 0.767
Sla2
  interaction score: 0.664
Smi1
  interaction score: 0.562
Bzz1
  interaction score: 0.835
Ssb2
  interaction score: 0.935
Srv2
  interaction score: 0.656
Tdh3
  interaction score: 0.971
Arc15
  interaction score: 0.903
Ygl242c
  interaction score: 0.944
Hsp104
  interaction score: 0.774
Cdc10
  interaction score: 0.379
Las17
  interaction score: 0.879
Pan1
  interaction score: 0.936
Sla1
  interaction score: 0.56
Sfk1
  interaction score: 0.746
Hek2
  interaction score: 0.401
Cmd1
  interaction score: 0.458
Nap1
  interaction score: 0.482

## Myo5 with SH3 extantMyo5 (from UniProt Q04439)
Rvs167
  interaction score: 0.503
Arc40
  interaction score: 0.969
Ssa1
  interaction score: 0.914
Arc19
  interaction score: 0.768
Sac6
  interaction score: 0.823
Yor1
  interaction score: 0.454
Ssb1
  interaction score: 0.942
Osh2
  interaction score: 0.756
Bmh1
  interaction score: 0.815
Bbc1
  interaction score: 0.762
Ste20
  interaction score: 0.401
Pkh2
  interaction score: 0.11
Pab1
  interaction score: 0.8
Tif4631
  interaction score: 0.665
Cdc3
  interaction score: 0.422
Chc1
  interaction score: 0.568
Arc18
  interaction score: 0.868
Ysc84
  interaction score: 0.463
Syp1
  interaction score: 0.513
Myo5
  interaction score: 0.901
Pfk1
  interaction score: 0.869
Mid2
  interaction score: 0.864
Sbp1
  interaction score: 0.824
Lsb3
  interaction score: 0.62
Vrp1
  interaction score: 0.917
Aim21
  interaction score: 0.762
Ssz1
  interaction score: 0.835
Sla2
  interaction score: 0.621
Smi1
  interaction score: 0.518
Bzz1
  interaction score: 0.814
Ssb2
  interaction score: 0.932
Srv2
  interaction score: 0.632
Tdh3
  interaction score: 0.97
Arc15
  interaction score: 0.9
Ygl242c
  interaction score: 0.938
Hsp104
  interaction score: 0.758
Cdc10
  interaction score: 0.366
Las17
  interaction score: 0.876
Pan1
  interaction score: 0.926
Sla1
  interaction score: 0.523
Sfk1
  interaction score: 0.736
Hek2
  interaction score: 0.321
Cmd1
  interaction score: 0.26
Nap1
  interaction score: 0.48
